Measurements published in paper PMC7935746.

Legend:
[1] = target: His-tagged TriC transporter (Pseudomonas aeruginosa); test: cryo-EM structure
[2] = target: His-tagged TriC transporter (Pseudomonas aeruginosa); test: SEC

| Substance | stoichiometry N [1] | stoichiometry N [2] |
| --- | --- | --- |
| His-tagged TriC transporter (natural protein) | 3 | 3 |
| fused TriAB dimer (TriA and TriB on one polypeptide) |  | 1 |
